Our source for the EC50 values is patent CN116507641A.

Test [1] deals with 人重组结合素-4蛋白 (recombinant human Nectin-4, extracellular domain) (human) (UniProt Q96NY8). The experiment in a line: ELISA, recombinant human Nectin-4 coated on plate.
For test [2], the target named is 人结合素-4 (full-length human Nectin-4 on cells) (human) (UniProt Q96NY8). Put plainly: FACS competition: antibody titrated against biotinylated human Nectin-1-His (competitor, 0.75 ug/ml) on CHO-Nectin-4 cells.
Chain of 人结合素-4 (full-length human Nectin-4 on cells) (human) (Q96NY8 32-510): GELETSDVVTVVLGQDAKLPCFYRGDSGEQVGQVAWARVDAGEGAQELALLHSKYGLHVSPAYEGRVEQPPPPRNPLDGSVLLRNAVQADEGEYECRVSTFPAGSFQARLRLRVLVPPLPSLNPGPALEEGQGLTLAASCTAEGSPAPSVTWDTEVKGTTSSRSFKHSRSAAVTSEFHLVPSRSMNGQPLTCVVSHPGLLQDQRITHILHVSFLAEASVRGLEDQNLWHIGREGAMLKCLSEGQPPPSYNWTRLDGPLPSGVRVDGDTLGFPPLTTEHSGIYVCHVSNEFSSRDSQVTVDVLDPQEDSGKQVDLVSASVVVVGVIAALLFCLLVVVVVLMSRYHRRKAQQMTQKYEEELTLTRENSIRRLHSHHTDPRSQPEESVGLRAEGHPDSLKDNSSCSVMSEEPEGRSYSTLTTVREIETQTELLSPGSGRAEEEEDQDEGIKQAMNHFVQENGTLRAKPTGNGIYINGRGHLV

Chain of 人重组结合素-4蛋白 (recombinant human Nectin-4, extracellular domain) (human) (Q96NY8 32-349): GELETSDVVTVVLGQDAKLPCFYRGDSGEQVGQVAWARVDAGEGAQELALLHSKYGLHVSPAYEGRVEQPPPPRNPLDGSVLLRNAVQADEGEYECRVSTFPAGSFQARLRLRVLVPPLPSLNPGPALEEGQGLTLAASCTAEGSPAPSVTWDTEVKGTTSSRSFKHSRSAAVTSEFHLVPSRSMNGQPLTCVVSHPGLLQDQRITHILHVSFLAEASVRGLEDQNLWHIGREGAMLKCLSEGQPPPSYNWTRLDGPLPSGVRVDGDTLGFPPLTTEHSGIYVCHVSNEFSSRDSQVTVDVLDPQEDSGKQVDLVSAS

Usually EC50 stands for the concentration that produces a half-maximal response. On to “阳性对照1 (PC1), in-house Nectin-4-specific antibody based on enfortumab antibody (AGS-22M6)”, for which the values for the EC50 in test [1] and in test [2] were 0.34 nM and 0.16 nM, respectively.
